According to the nanobody polyreactivity screen of Harvey et al. (2022):

Assay: yeast display, Sf9 membrane polyspecificity reagent, FACS + sequencing; frameworks hold sequencing errors
Summary of the method: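 Galactose induction of a Saccharomyces cerevisiae BJ5465 synthetic nanobody display library ran 36–48 hours. The cells were then stained for 1 hour at 4 °C with 10% biotinylated, detergent-solubilized Sf9 membrane reagent, pulled down on streptavidin microbeads and FACS-sorted into low and high (top ~1%) gates on expression and reagent-binding fluorescence. Labels for polyreactivity follow the gate of origin.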

| Sequence | polyreactivity (PSR sort gate) |
| --- | --- |
| QVQLVESGGGLLQAGGSLRLSCAASGSTFGHYAMGWYRQAPGKERELVAAITWSGGSTYYADSVKGRFTISGDNAKNTVYLQMKSLKPEDTAVYDCAARFGGGAARHGYWGQGTQVTVSS | high polyreactivity |
| QVQLVESGGGLVQAGGSLRLSCAASGFIFPYYAMGWYRPAPGKERELVAAITSSGGSTYYADSVKGRFTISRDNAKNTVYLQMNSLKPEDTAVYYFNAYVRRTRVYDYWGQGTLVTVSS | high polyreactivity |
| QVQLVESGGGLVQAGGSLRLSCAASGRIFTRYAMGWYRQAPGKERELVATISRGGNTNYADSVKGRFTISRDNAKNTVYLQMNSLKPEDTAVYYCAKYPVSRVGGYGYWGQGTQVTVSS | low polyreactivity |
| QVQLVESGGGLVQAGGSLRLSCAASGRIFGRYAMGWYRQAPGKERELVAAITSGGRTSYADSVKGRFTISRDNAKNTVYLQMNSLKPEDTSVYYCNVVSRNSIRFDYWGQGTQVTVSS | high polyreactivity |
| QVQLVESGGGLVQAGGSLRLSCAASGRIFQRNVMGWYRQAPGKERELVASITGGGTTNYADSVKGRFTISRDNAKNTVYLQMNSLKPEDTAVYYCAKGYGASNDPGYVRKRYGYWGQGTQVTVSS | low polyreactivity |
| QVQLVESGGGLVQAGGSLRLSCAASGSIFKQNAMGWYRQAPGKERELVASIRASGDRTYYADSVKGRFTISRDNAKNTVYLQMNSLKPEDTAVYYCAARRVRTRGYNYWGQGTQVTVSS | high polyreactivity |
| QVQLVESGGGLLQAGGSLRLSCAASGRTFWWNAMGWYRQAPGKERELVAVISYSGGSTYYADSVKGRFTISRDNAKNTVYLQMNSLKPEDTAVYYCAADLYSHTGYYWGQGTQVTVSS | high polyreactivity |
| QVQLVESGGGLVQAGGSLRLSCAASGRIFYRYAMGWSRPAHGKERELVASISGSGGRTYYADSVKGRFTISRDNAKNTVYLQMNSLKPEDTAVSYCAARIRPSYDWGQGTQVTVSS | high polyreactivity |
| QVQLVESGGGLVQAGGSLRLSCAASGPTYWPYAMGWYRQAPGKERELVAAITYSGGGTYYADSVKGRFTISRDNAKNTVYLQMNSLKPEDTAVYYCAKYNYPGRPFDYWGQGTQVTVSS | low polyreactivity |
| QVQLVESGGGLVQAGGSLRLSCAASGRTLFWNAMGWYRQAPGKEREFVAAIRWRGGSTYYADSVKGRFTISRDNAKNTVYLQMNSLKPEDTAVYYCGAAVRPYKRQDDYWGQGTQVSVSS | high polyreactivity |
| QVQLVESGGGLVQAGGSLRLSCAASGSTFSSNAMGWYRQAPGKEREFVAGISRSGGSTYYADSVKGRFTISRDNAKNTVYLQMNSLKPEDTAVYYCAARGGPGFKFGYWGQGTQVTVSS | high polyreactivity |
| QVQLVESGGGLVQAGGSLRLSCAASGSTSQVNDMGWYRQAPGKERELVAAISSTGDRTYYADSVKGRFTISRDNAKNTVYLQMNSLKPEDTAVYYCNADLTSYYEEDERNDDDYWGQGTQVTVSS | low polyreactivity |
| QVQLVESGGGLVQAGGSLRLSCAASGRIFAYNAMGWYRPAPGKERELVADISSGGNTYYADSVKGRFTISRDNAKNTVYLQMNSLKPEDTAVYYCAADIAWYTHYHRIFDYWGQGTQVTVSS | low polyreactivity |
| QVQLVESGGGLVQAGGSLRLSCAASGFIFPWNAMGWYRQAPGKERELVAAISFSGGSTYYADSVKGRFTISRDNAKNTVYLQMNSLKPEDTAVYYCAKRTWDLRRTRHYYWGQGTQVTVSS | low polyreactivity |
| QVQLVESGGGLVQAGGSLRLICAASGSTFNDYVMGWYRQAPGKERELVAAISRSGGSTYYADSVKGRITISRDNAKNTVYLQMNSLKPEDTAVYYCAAASPGPWRYDYWGQGTQVTVSS | high polyreactivity |
| QVQLVESGGGLVQAGGSLRLSCAASGFIFGYNAMGWYRQAPGKERELVAAINWSGGRTYYADSVKGRFTISRDNPKNTVYLQMNSLKPEDTAVSYCNADGSRRYNYWGQGTQVTVSS | low polyreactivity |
| QFQLVESGGGLVQAGGSLGLSCAASGRSFAQYTMGWYRQAPGKERELVAAISWSGTSTYYADSVKGRFTISRDNAKNTVSLQMNSLKPEDTAVYYCAALGRYSVEYGYWGQGTQVTVSS | high polyreactivity |
| QVQLVESGGGLVQAGGSLRLSCAASGFIFGTYAMGWYRQAPGKERELVAAISRVGNTSYADSVKGRFTISRDNAKNTVYLQMNSLKPEDTAVYYCAADAPSWYDRQYDYWGQGTQVTVSS | low polyreactivity |
| QVQLVESGGGLVQAGGSLRLSCAASGFIFYYYAMGWYRQATGKERELDASISSDGSTYYADSVKGRFTISRDNAKNTVYLQMNSLKPEDTAVYYCNADRYYPDDLSDGVGTYDYWGQGTQVTVSS | low polyreactivity |
| QVQLVESGGGLVQAGGSLRLSCAASGFIFAKYAMGWYRQAPGKERELVAAITSGGSTNYADSVKGRFTISRDNAKNTVYLQMNSLKPEDTAVYYCNRGFDWWYRYRHYDYWGQGTQVTVSS | low polyreactivity |
| QVQLVDSGGGLVQAGGSLRLSCAASGRTFYWYTMGWYRQAPGKERELVAAISTRGVRTYYADSVKGRFTISRDNAKNTVYLQMNSLKPADTAVYYCNDEYNPTYYTSHDDSDYWGQGTLVTVSS | low polyreactivity |
